The source of these data is publication PMC4646322 (The Journal of Biological Chemistry, 2015).

Data set [1] concerns the molecule itself. Nature of the data set: AUC; sedimentation equilibrium, 20 and 200 μM TolR(36–142), 15,000-35,000 rpm, 20 h at each speed, 50 mM Tris pH 7.5, 150 mM NaCl, 20 °C, interference optics; self-association model.
Data set [2] concerns the molecule itself. The data set is described as follows: SEC-MALS; SEC-MALLS, Superdex75 10/300, 50 mM Tris pH 7.5, 150 mM NaCl; samples loaded at 20, 200 or 500 μM.

B1: E. coli TolR(36–142), intact periplasmic domain of TolR (domain or fragment, Escherichia coli K12)
chain: GAMAPIITQSVEVDLPDATESQAVSSNDNPPVIVEVSGIGQYTVVVEKDRLERLPPEQVVAEVSSRFKANPKTVFLIGGAKDVPYDEIIKALNLLHSAGVKSVGLMTQPI
notes: three residues left at the N terminus after cleavage by tobacco etch virus protease; expected mass of the monomer 11,695.4 Da; Vector pETM-11; also called TolR21; source: E. coli BL21 DE3, purified (HisTrap, TEV cleavage, Superdex75); not shown: His6, N-terminal, cleaved
On to B1, for which the “stoichiometry N” value in data set [1] turned out to be 2.

B2: E. coli TolR(36–133) (domain or fragment, Escherichia coli K12)
chain: GAMAPIITQSVEVDLPDATESQAVSSNDNPPVIVEVSGIGQYTVVVEKDRLERLPPEQVVAEVSSRFKANPKTVFLIGGAKDVPYDEIIKALNLLHSAGVK
notes: three residues left at the N terminus after cleavage by tobacco etch virus protease; TolR, Escherichia coli K12, residues 36-133 (9 C-terminal residues deleted); expected mass 10,768.2 Da; Dimer that dissociates on dilution; essentially monomeric at low micromolar concentrations; source: E. coli BL21 DE3, purified (HisTrap, TEV cleavage, Superdex75); not shown: His6, N-terminal, cleaved
Consider B2, for which the binding result in data set [2] is given as “binds”.

B3: E. coli TolR(64–142) (domain or fragment, Escherichia coli K12)
chain: GAMVIVEVSGIGQYTVVVEKDRLERLPPEQVVAEVSSRFKANPKTVFLIGGAKDVPYDEIIKALNLLHSAGVKSVGLMTQPI
notes: three residues left at the N terminus after cleavage by tobacco etch virus protease; expected mass 8818.3 Da; Dimer that dissociates on dilution; source: E. coli BL21 DE3, purified (HisTrap, TEV cleavage, Superdex75); not shown: His6, N-terminal, cleaved
In the case of B3, in data set [2], the binding result is “binds”.

B4: E. coli TolR(60–133), truncated TolR (domain or fragment, Escherichia coli K12)
chain: GAMDNPPVIVEVSGIGQYTVVVEKDRLERLPPEQVVAEVSSRFKANPKTVFLIGGAKDVPYDEIIKALNLLHSAGVK
notes: three residues left at the N terminus after cleavage by tobacco etch virus protease; TolR, Escherichia coli K12, residues 60-133 (N- and C-terminal strand-swapped regions deleted); expected mass 8314.6 Da; Dimer that dissociates already at 200 μM; also called TolR24; source: E. coli BL21 DE3, purified (HisTrap, TEV cleavage, Superdex75); not shown: His6, N-terminal, cleaved
As to B4, the binding result in data set [2] is given as “binds”.
